Results as given in US20220306695A1, “COMPSTATIN ANALOGUES AND THEIR MEDICAL USES” (priority 2019, published 2022).
Starred links: 1 amine or outer side, 2 acyl side, 3 side chain; linkers in the order of their positions; H or OH if unused. Positions of bridges follow the written chain, without caps; N, C: chain ends. Non-standard residues stand in square brackets, D forms with d. Groups on a side chain read outwards from the residue. *: point of attachment. Trp(1-Me) = Cn1cc(C[C@H](N)C(=O)O)c2ccccc21; C18 diacid = O=C(O)CCCCCCCCCCCCCCCCC(=O)*; C16 diacid = O=C(O)CCCCCCCCCCCCCCC(=O)*; γGlu = O=C(O)[C@H](CCC(=O)[*:2])N[*:1]; AEEA = NCCOCCOCC(=O)O; Sar = CNCC(=O)O

B1: Compound 105 (peptide)
peptide: Ac-SAYCI[Trp(1-Me)]QDWGEHRC[Sar]EK([γGlu-Gly-Lys-γGlu-C18 diacid])-NH2
modifications: disulfide 4-14
B2: Compound 110 (peptide)
peptide: Ac-EGSAYCI[Trp(1-Me)]QDWGEHRC[Sar]EGKK([γGlu-Gly-γGlu-C18 diacid])-NH2
modifications: disulfide 6-16
SMILES: CC[C@H](C)[C@@H]1NC(=O)[C@@H](NC(=O)[C@H](Cc2ccc(O)cc2)NC(=O)[C@H](C)NC(=O)[C@H](CO)NC(=O)CNC(=O)[C@H](CCC(=O)O)NC(C)=O)CSSC[C@@H](C(=O)N(C)CC(=O)N[C@@H](CCC(=O)O)C(=O)NCC(=O)N[C@@H](CCCCN)C(=O)N[C@@H](CCCCNC(=O)CC[C@H](NC(=O)CNC(=O)CC[C@H](NC(=O)CCCCCCCCCCCCCCCCC(=O)O)C(=O)O)C(=O)O)C(N)=O)NC(=O)[C@H](CCCNC(=N)N)NC(=O)[C@H](Cc2c[nH]cn2)NC(=O)[C@H](CCC(=O)O)NC(=O)CNC(=O)[C@H](Cc2c[nH]c3ccccc23)NC(=O)[C@H](CC(=O)O)NC(=O)[C@H](CCC(N)=O)NC(=O)[C@H](Cc2cn(C)c3ccccc23)NC1=O
B3: Compound 108 (peptide)
peptide: {C18 diacid}-EGSEYCI[Trp(1-Me)]QDWGEHRC[Sar]E-NH2
modifications: disulfide 6-16
SMILES: CC[C@H](C)[C@@H]1NC(=O)[C@@H](NC(=O)[C@H](Cc2ccc(O)cc2)NC(=O)[C@H](CCC(=O)O)NC(=O)[C@H](CO)NC(=O)CNC(=O)[C@H](CCC(=O)O)NC(=O)CCCCCCCCCCCCCCCCC(=O)O)CSSC[C@@H](C(=O)N(C)CC(=O)N[C@@H](CCC(=O)O)C(N)=O)NC(=O)[C@H](CCCNC(=N)N)NC(=O)[C@H](Cc2c[nH]cn2)NC(=O)[C@H](CCC(=O)O)NC(=O)CNC(=O)[C@H](Cc2c[nH]c3ccccc23)NC(=O)[C@H](CC(=O)O)NC(=O)[C@H](CCC(N)=O)NC(=O)[C@H](Cc2cn(C)c3ccccc23)NC1=O
B4: Compound 109 (peptide)
peptide: Ac-EGSAYCI[Trp(1-Me)]QDWGEHRC[Sar]EGEK([γGlu-Gly-γGlu-C18 diacid])-NH2
modifications: disulfide 6-16
SMILES: CC[C@H](C)[C@@H]1NC(=O)[C@@H](NC(=O)[C@H](Cc2ccc(O)cc2)NC(=O)[C@H](C)NC(=O)[C@H](CO)NC(=O)CNC(=O)[C@H](CCC(=O)O)NC(C)=O)CSSC[C@@H](C(=O)N(C)CC(=O)N[C@@H](CCC(=O)O)C(=O)NCC(=O)N[C@@H](CCC(=O)O)C(=O)N[C@@H](CCCCNC(=O)CC[C@H](NC(=O)CNC(=O)CC[C@H](NC(=O)CCCCCCCCCCCCCCCCC(=O)O)C(=O)O)C(=O)O)C(N)=O)NC(=O)[C@H](CCCNC(=N)N)NC(=O)[C@H](Cc2c[nH]cn2)NC(=O)[C@H](CCC(=O)O)NC(=O)CNC(=O)[C@H](Cc2c[nH]c3ccccc23)NC(=O)[C@H](CC(=O)O)NC(=O)[C@H](CCC(N)=O)NC(=O)[C@H](Cc2cn(C)c3ccccc23)NC1=O
B5: Compound 103 (peptide)
peptide: Ac-EGSAYCI[Trp(1-Me)]QDWGEHK([AEEA-AEEA-γGlu-C16 diacid])C[Sar]E-NH2
modifications: disulfide 6-16
SMILES: CC[C@H](C)[C@@H]1NC(=O)[C@@H](NC(=O)[C@H](Cc2ccc(O)cc2)NC(=O)[C@H](C)NC(=O)[C@H](CO)NC(=O)CNC(=O)[C@H](CCC(=O)O)NC(C)=O)CSSC[C@@H](C(=O)N(C)CC(=O)N[C@@H](CCC(=O)O)C(N)=O)NC(=O)[C@H](CCCCNC(=O)COCCOCCNC(=O)COCCOCCNC(=O)CC[C@H](NC(=O)CCCCCCCCCCCCCCC(=O)O)C(=O)O)NC(=O)[C@H](Cc2c[nH]cn2)NC(=O)[C@H](CCC(=O)O)NC(=O)CNC(=O)[C@H](Cc2c[nH]c3ccccc23)NC(=O)[C@H](CC(=O)O)NC(=O)[C@H](CCC(N)=O)NC(=O)[C@H](Cc2cn(C)c3ccccc23)NC1=O

The binders below were run against Human C3 (human, UniProt P01024 23-1663) (assay: cell-based or functional assay).
Human C3, sequence (P01024 23-1663 limits assumed): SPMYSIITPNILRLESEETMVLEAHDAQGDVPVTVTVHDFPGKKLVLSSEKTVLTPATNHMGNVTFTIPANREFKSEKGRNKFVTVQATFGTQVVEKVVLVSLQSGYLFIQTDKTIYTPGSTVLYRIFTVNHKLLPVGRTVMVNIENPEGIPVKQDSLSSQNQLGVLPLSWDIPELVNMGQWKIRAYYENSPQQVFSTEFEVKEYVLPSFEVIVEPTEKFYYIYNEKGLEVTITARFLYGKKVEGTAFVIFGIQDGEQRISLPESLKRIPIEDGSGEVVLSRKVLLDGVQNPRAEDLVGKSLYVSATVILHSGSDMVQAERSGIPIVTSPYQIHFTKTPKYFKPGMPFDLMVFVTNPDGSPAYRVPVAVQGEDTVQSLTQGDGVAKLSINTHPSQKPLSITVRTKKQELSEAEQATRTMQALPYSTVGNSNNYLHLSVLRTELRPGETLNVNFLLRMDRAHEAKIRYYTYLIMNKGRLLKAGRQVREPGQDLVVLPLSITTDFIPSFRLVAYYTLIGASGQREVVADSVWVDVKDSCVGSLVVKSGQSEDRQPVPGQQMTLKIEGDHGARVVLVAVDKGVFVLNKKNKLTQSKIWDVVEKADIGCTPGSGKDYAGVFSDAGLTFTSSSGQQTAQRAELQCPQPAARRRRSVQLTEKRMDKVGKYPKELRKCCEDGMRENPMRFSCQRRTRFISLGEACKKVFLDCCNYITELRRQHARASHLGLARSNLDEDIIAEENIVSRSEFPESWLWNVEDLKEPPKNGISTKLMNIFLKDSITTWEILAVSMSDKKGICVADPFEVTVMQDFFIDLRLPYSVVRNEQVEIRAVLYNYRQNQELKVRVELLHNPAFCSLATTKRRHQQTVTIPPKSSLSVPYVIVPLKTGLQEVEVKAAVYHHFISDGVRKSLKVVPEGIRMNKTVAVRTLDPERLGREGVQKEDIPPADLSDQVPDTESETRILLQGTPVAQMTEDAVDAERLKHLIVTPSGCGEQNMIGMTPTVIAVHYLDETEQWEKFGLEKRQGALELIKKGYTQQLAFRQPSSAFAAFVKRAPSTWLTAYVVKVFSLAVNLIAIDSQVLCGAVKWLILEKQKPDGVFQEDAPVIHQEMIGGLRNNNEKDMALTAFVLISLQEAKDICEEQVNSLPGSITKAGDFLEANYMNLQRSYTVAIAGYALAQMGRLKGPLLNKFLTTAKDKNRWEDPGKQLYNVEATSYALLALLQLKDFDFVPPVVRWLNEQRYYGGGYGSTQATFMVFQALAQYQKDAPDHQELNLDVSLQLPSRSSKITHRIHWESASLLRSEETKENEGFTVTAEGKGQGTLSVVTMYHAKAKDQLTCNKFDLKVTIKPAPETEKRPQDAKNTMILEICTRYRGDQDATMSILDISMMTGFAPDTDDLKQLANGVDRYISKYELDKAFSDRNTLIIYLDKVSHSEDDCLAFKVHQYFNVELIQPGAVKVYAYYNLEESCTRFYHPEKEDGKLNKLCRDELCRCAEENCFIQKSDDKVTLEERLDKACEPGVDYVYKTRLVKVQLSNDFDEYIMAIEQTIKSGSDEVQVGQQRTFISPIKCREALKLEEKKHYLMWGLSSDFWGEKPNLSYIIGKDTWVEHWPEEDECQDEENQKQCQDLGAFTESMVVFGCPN
With B1 the IC50[nM], inhibition of hemolysis was less than 100 nM. With B2 the IC50[nM], inhibition of hemolysis was less than 250 nM. For B3, the IC50[nM], inhibition of hemolysis was less than 500 nM. For B4, the IC50[nM], inhibition of hemolysis was less than 250 nM. In the case of B5, the IC50[nM], inhibition of hemolysis is reported as less than 100 nM.
